According to the supplement of paper PMC9876800:

Test system: peptide library, one residue held at a place counted from the S/T acceptor
Assay: relative phosphorylation of the sub-library (ratio to the mean residue at this position); higher = residue favoured
How it was run: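 Relative sub-library phosphorylation is a ratio to the mean residue at the same position. Purified recombinant kinases were incubated under kinase-specific conditions with biotinylated degenerate peptide sub-libraries, each fixing one residue at one position around a central Ser/Thr, using 50 μM peptide and 50 μM ATP spiked with γ-32P-ATP for 90 min. Spots captured on streptavidin membranes were phosphorimaged and quantified by densitometry.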

Sequence of RPS6KB2, construct: Full length, human (Q9UBS0 whole entry, looked up): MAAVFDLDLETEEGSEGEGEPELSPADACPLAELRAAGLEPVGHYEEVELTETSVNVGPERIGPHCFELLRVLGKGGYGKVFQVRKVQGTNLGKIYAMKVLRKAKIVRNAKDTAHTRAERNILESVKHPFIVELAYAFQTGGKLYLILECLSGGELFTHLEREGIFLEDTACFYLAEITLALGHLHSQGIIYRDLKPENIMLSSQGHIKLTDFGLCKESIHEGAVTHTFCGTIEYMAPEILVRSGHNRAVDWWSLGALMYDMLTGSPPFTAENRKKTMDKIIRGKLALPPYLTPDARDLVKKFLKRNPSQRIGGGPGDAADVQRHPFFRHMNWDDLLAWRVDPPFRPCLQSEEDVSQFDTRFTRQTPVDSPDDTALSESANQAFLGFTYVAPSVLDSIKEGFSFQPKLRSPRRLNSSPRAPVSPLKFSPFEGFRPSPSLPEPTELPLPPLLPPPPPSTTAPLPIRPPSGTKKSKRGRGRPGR
Sequence of MAP3K21, construct: aa98-451, human (Q5TCX8 98-451, looked up): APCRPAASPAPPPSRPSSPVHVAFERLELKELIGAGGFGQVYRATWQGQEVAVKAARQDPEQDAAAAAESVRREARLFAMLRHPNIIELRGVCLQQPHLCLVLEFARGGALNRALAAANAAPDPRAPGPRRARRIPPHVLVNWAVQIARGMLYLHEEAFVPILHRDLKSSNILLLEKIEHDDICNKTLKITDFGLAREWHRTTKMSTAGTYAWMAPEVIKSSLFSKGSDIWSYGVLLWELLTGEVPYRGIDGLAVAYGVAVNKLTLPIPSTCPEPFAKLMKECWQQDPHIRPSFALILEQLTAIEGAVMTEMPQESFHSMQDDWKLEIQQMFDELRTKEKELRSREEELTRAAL

MAP3K21, construct: aa98-451, human (from UniProt Q5TCX8)
relative phosphorylation
Conditions	at +1	at +2	at +3	at +4	at -1	at -2	at -3	at -4	at -5
A fixed	0.66	0.456	0.721	0.893	0.777	0.912	0.933	1.05	1.07
D fixed	0.244	0.223	0.462	0.682	1.23	1.55	1.72	1.84	1.8
E fixed	0.435	0.323	0.508	0.676	0.821	1.43	1.97	1.81	1.63
F fixed	1.52	0.38	1.08	0.633	0.875	1.02	0.789	0.676	0.82
G fixed	0.585	0.397	0.796	1.11	0.386	0.992	1.17	1.37	1.24
H fixed	1.21	2.1	1.61	1.16	1.46	1.19	1.19	1.12	1.06
I fixed	1.28	0.502	0.71	0.622	0.534	0.537	0.406	0.49	0.485
K fixed	1.25	2.23	1.52	2.18	1.03	0.356	0.702	0.83	1.03
L fixed	0.726	0.507	1.14	0.58	0.711	0.699	0.545	0.513	0.609
M fixed	1.61	0.467	0.881	0.722	0.914	1.04	0.806	0.818	0.654
N fixed	0.62	0.624	0.829	0.871	1.43	1.18	1.22	1.16	1.01
P fixed	0.185	0.18	0.398	1.46	0.679	1.85	1.19	1.19	1.08
Q fixed	1.16	0.88	0.849	1.16	1.02	1.05	1.16	0.968	0.99
R fixed	1.92	3.75	1.87	2.13	1.4	0.593	0.817	0.902	1.13
V fixed	1.98	0.426	0.81	0.753	0.875	0.52	0.496	0.595	0.682
W fixed	0.707	1.91	1.41	0.702	1.19	0.909	0.872	0.886	0.825
Y fixed	0.907	1.65	1.41	0.661	1.67	1.18	1.02	0.779	0.886
pThr fixed	1.13	0.418	0.664	0.851	0.803	1.09	1.84	1.28	1.35
pTyr fixed	0.604	0.427	0.692	0.519	1.83	1.01	1.17	1.11	1.22

PRKG1, construct: Full length, human (from UniProt Q13976)
relative phosphorylation
Conditions	at +1	at +2	at +3	at +4	at -1	at -2	at -3	at -4	at -5
A fixed	0.819	1.43	0.964	0.841	0.831	0.24	0.611	1.1	1.11
D fixed	0.195	0.45	0.572	0.5	0.21	0.0553	0.075	0.315	0.381
E fixed	0.236	0.242	0.458	0.419	0.193	0.0546	0.0892	0.395	0.517
F fixed	1.29	1.16	1.23	1.13	1.05	0.201	0.447	0.986	1.08
G fixed	0.479	0.901	1.06	1.07	0.416	0.248	0.684	0.878	1.06
H fixed	1.2	1.62	1.49	1.31	1.25	0.518	1.48	1.3	1.24
I fixed	1.73	1.25	1.02	1.19	0.958	0.168	0.262	0.75	0.82
K fixed	0.623	0.642	0.669	0.715	1.42	5.12	2.17	1.53	1.43
L fixed	1.45	0.936	1.07	1.22	1.33	0.166	0.239	0.996	0.779
M fixed	1.56	1.03	1.26	1.22	1.43	0.171	0.351	1.31	0.877
N fixed	0.589	0.94	0.909	1.15	0.787	0.264	0.329	0.891	0.905
P fixed	0.177	0.576	0.743	1.35	0.718	0.13	0.421	0.58	0.8
Q fixed	0.967	1.16	0.964	1.02	0.868	0.402	0.674	0.851	0.848
R fixed	0.982	0.6	0.861	0.754	1.95	8.27	7.6	2.14	1.81
V fixed	2.26	1.53	1.03	0.847	1.16	0.544	0.273	0.77	0.914
W fixed	1.12	1.35	1.33	1.24	0.797	0.22	0.482	1.06	1.25
Y fixed	1.33	1.2	1.38	1.02	1.64	0.23	0.82	1.15	1.19
pThr fixed	0.343	0.228	0.412	0.444	0.174	0.142	0.214	0.542	0.627
pTyr fixed	0.365	0.324	0.493	0.5	0.324	0.098	0.248	0.487	0.659

MAPK9, construct: Full length, human (from UniProt P45984)
relative phosphorylation
Conditions	at +1	at +2	at +3	at +4	at -1	at -2	at -3	at -4	at -5
A fixed	0.338	0.988	1.43	1.17	1.16	2.09	1.24	1.17	1.14
D fixed	0.147	0.96	1.38	1.21	0.686	0.686	1.13	1.19	0.957
E fixed	0.151	0.694	1.34	1.27	0.862	0.379	1.19	1.09	0.869
F fixed	0.358	0.75	0.781	0.805	0.68	0.717	0.814	0.965	0.946
G fixed	0.646	1.33	1.53	1.32	1.28	0.653	1.21	1.14	1.15
H fixed	0.195	0.997	0.985	1.02	1	0.494	0.95	0.878	0.924
I fixed	0.433	1.24	0.638	0.879	0.695	1.28	0.76	0.861	0.801
K fixed	0.164	0.632	0.648	0.795	1.09	0.545	0.915	1.08	1.34
L fixed	0.462	1.18	0.879	0.787	1.37	2.05	1.08	1	0.923
M fixed	0.314	1.75	0.959	0.913	1.4	1.28	0.93	1.04	0.801
N fixed	0.17	1.07	0.973	0.934	0.854	0.494	1.07	0.886	0.94
P fixed	12.4	0.721	0.886	1.66	1.28	2.58	1.16	1.24	1.38
Q fixed	0.193	1.06	1.01	1.04	1.36	0.741	1.07	1.06	1.02
R fixed	0.187	0.803	0.908	0.802	1.25	0.635	1.09	0.938	1.02
V fixed	0.339	1.4	0.845	0.869	0.76	1.32	0.768	0.365	0.833
W fixed	0.303	0.69	0.951	0.817	0.533	0.543	0.729	1.02	0.886
Y fixed	0.239	0.745	0.859	0.712	0.743	0.511	0.875	1.09	1.07
pThr fixed	0.495	2.23	1.06	1.16	0.432	0.933	0.957	0.975	0.996
pTyr fixed	0.347	0.987	1.07	0.719	0.468	0.429	0.778	0.808	0.836

RPS6KB2, construct: Full length, human (from UniProt Q9UBS0)
relative phosphorylation
Conditions	at +1	at +2	at +3	at +4	at -1	at -2	at -3	at -4	at -5
A fixed	0.79	1.22	1.17	1	0.797	0.703	0.597	0.963	0.777
D fixed	0.72	0.659	0.823	1.07	1.08	0.468	0.415	0.699	0.634
E fixed	1.07	0.594	0.891	0.933	0.764	0.467	0.386	0.709	0.569
F fixed	1.32	0.706	0.912	0.863	0.822	0.626	0.459	0.705	0.611
G fixed	0.854	1.27	1.14	1.2	0.76	0.701	0.554	1.07	0.961
H fixed	0.971	1.58	1.18	1.17	1.01	1.11	0.903	1.05	1
I fixed	1.22	0.745	0.82	0.733	0.734	0.552	0.421	0.737	0.571
K fixed	0.989	1.09	1.08	1.19	1.63	2.59	2.04	1.97	2.19
L fixed	0.979	0.781	0.897	0.774	0.835	0.866	0.475	0.647	0.584
M fixed	1.11	0.961	0.869	0.849	0.903	0.702	0.453	0.77	0.566
N fixed	1.06	1.51	1.06	1.03	1.59	0.803	0.625	0.938	0.784
P fixed	0.614	0.914	1.05	1.25	0.931	0.548	0.55	0.937	0.834
Q fixed	1.13	1.02	1.17	1.1	1.03	0.882	0.731	1.08	0.945
R fixed	0.954	1.52	1.01	0.973	1.44	3.95	6.7	2.31	3.84
V fixed	1.09	0.88	0.849	0.747	0.855	0.58	0.425	0.794	0.607
W fixed	0.979	0.776	1.1	1.16	0.774	0.674	0.697	0.828	0.734
Y fixed	1.15	0.778	0.98	0.952	1.03	0.772	0.573	0.789	0.789
pThr fixed	1.17	0.868	0.923	1.34	0.624	0.484	0.446	0.703	0.596
pTyr fixed	1.39	0.96	1.2	1.32	1.8	0.552	0.473	0.767	0.779
